The source of these data is US20180245058.

What all share (assay): cell_activity
Data set [1] deals with CCR5 ZFN with wild-type ZC linker (SBS #8266) (artificial) (UniProt P14870). The conditions noted are these: average of 2; ZFN pair.
In data set [2] the test system is CCR5 ZFN with L6a linker (artificial). The following applies: average of 2; ZFN pair.
Data set [3] has as its system CCR5 ZFN with L7a linker (artificial). The following applies: ZFN pair.
Data set [4] relates to mROSA-targeted ZFN pair, Wt/L7a linkers (artificial). The following applies: Neuro2A, CEL-I; mock 0.4.
Data set [5] has as its system mROSA-targeted ZFN pair, Wt/Wt linkers (artificial). The following applies: Neuro2A, CEL-I; repeats 23.2 and 18.7; mock 0.4.
Data set [6] relates to rat IgM-targeted ZFN pair, ZC linkers (artificial). The following applies: rat C6 cells, CEL-I.
For data set [7], the system named is rat IgM-targeted ZFN pair including L7a linker (artificial). The following applies: rat C6 cells, CEL-I.

CCR5 ZFN with L7a linker (artificial), sequence (chain, as listed by the source): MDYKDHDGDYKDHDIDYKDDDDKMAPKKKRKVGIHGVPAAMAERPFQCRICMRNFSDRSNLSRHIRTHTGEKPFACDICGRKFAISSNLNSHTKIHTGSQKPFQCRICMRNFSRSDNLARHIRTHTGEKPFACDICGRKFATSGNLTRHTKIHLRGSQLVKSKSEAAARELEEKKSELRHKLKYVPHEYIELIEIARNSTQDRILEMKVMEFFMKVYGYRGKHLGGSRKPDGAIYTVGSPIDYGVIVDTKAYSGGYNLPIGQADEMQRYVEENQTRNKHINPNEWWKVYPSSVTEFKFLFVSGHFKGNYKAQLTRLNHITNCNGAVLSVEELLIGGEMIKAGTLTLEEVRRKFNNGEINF
CCR5 ZFN with L6a linker (artificial), sequence (chain, as listed by the source): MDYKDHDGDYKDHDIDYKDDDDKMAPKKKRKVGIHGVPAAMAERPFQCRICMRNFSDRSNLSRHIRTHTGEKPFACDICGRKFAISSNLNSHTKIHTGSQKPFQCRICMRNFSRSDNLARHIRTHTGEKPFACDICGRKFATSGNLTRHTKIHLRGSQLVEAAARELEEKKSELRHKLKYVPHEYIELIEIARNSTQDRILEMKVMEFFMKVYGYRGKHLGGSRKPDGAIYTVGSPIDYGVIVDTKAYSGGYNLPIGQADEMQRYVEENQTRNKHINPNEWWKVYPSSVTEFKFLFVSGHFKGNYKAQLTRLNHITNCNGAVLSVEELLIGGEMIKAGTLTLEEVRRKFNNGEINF
CCR5 ZFN with wild-type ZC linker (SBS #8266) (artificial), sequence (P14870 other isoform, or with tags, fused parts or gaps): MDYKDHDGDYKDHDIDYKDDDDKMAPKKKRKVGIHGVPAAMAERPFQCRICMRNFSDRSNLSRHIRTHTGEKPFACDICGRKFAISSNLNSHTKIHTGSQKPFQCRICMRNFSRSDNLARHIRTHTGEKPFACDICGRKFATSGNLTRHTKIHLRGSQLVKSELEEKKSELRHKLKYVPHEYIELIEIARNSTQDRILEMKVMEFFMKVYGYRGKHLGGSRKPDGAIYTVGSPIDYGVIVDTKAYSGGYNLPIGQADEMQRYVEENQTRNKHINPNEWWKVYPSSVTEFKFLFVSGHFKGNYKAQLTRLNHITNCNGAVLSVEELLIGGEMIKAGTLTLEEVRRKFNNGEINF

Turning to CCR5 ZFN target, 4 bp gap, the activity in data set [1] was 1.2 % NHEJ. In the case of CCR5 ZFN target, 5 bp gap, the results for the activity in data set [2] and in data set [1] were 39.3 % NHEJ and 35 % NHEJ, respectively. As to CCR5 ZFN target, 6 bp gap, the values for the activity in data set [2], in data set [3] (average of 2) and in data set [1] were 25.4 % NHEJ, 31.8 % NHEJ and 11.1 % NHEJ, respectively.

As for CCR5 ZFN target, 7 bp gap, the activity in data set [2] was 5.1 % NHEJ; in data set [3] (average of 2), 39.6 % NHEJ. As for CCR5 ZFN target, 8 bp gap, in data set [3] (average of 2 as printed), the activity came out at 6.1 % NHEJ. For the substance mROSA target, 6 bp gap, the activity in data set [4] amounted to 7.5 % NHEJ; in data set [5], 22.6 % NHEJ.

Take rat IgM target, 6 bp gap: the activity amounted to 1.93 % NHEJ in data set [6] and 2.43 % NHEJ in data set [7].
